Measurements reported in patent US20080105961A1, “Ligands of the Molecule Fit (Agt-121) and their Pharmaceutical Use” (priority 2004, published 2008).
Marks after values point to notes of the source that are not given here.

T1: FIT-NP (FIT N-terminal plus proline-rich region) (Homo sapiens, UniProt Q9BQI5)
T1 construct: expressed in transfected cells
T1 sequence (Q9BQI5 with tags, fused parts or gaps I33M/P40L/N43H/V56A/I186T/P191L/T195L/E211G/Q212H/I230V/T240A/N255T/I269V/G270A/P271T/S276A/V280A/L285P/N289S/A308T/K311T/T318A/S335T/T339A/P340S/N342I/A348T/L352P/P357S/T358A/DEL367-367/L371P/I397L/D402E/F403C/A409E/P432S/P434T/T437A/R454S/S455C/T456S): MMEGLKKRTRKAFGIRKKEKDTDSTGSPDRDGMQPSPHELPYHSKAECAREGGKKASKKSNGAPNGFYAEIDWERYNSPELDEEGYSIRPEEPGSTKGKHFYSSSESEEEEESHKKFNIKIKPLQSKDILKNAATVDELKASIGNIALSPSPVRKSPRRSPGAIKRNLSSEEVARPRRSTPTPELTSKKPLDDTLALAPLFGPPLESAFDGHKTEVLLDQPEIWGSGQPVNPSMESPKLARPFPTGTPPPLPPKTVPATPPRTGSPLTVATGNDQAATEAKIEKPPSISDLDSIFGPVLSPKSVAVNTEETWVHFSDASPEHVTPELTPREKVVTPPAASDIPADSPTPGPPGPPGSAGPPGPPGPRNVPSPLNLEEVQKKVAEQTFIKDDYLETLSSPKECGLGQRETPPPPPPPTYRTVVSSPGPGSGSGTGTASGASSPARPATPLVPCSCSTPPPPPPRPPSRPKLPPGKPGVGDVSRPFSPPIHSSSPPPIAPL

T2: FIT-PR (FIT proline-rich region) (Homo sapiens, UniProt Q9BQI5)
T2 construct: expressed in transfected cells
T2 sequence (Q9BQI5 with tags, fused parts or gaps N255T/I269V/G270A/P271T/S276A/V280A/L285P/N289S/A308T/K311T/T318A/S335T/T339A/P340S/N342I/A348T/L352P/P357S/T358A/DEL367-367/L371P/I397L/D402E/F403C/P432S/P434T/T437A/R454S/S455C/T456S): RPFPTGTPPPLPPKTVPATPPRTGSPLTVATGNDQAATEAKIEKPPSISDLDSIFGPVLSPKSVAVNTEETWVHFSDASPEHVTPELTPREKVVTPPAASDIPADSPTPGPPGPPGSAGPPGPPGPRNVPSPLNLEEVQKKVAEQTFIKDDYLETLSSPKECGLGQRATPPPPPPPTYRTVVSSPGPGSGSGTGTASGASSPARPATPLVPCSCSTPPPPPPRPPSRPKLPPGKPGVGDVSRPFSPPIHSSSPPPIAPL


Experiments:
[1] = biological target: T1, FIT-NP (FIT N-terminal plus proline-rich region); experiment: Yeast two-hybrid screen of human brain cDNA library, bait FIT-NP; format: binding; conditions: for Number of clones: bait FIT-NP, human brain cDNA library, clones listed highest to lowest interacting strength; for strength of interaction with FIT: in yeast
Description: (§1) In order to perform these experiments, two truncated fragments of FIT were constructed to be used as baits in a yeast two-hybrid screen of a human brain cDNA library: one bait consisting of the N-terminal region plus the central proline-rich region, and the other bait consisting of the central proline-rich region alone. The inventors utilised a yeast two-hybrid system which incorporates modifications by Chevray and Nathans (1992), and Vidal et al. (1996) to screen a human brain cDNA library. FIT fragments were PCR amplified, purified and then cloned into an appropriate vector. Sense oligonucleotides for FIT-NP (5′-[…]-3′: SEQ ID NO:72), and FIT-PR (5′-[…]-3′: SEQ ID NO:73), with Sal1 restriction enzyme sites underlined, were used in conjunction with a common antisense oligonucleotide (5′-[…]-3′: SEQ ID NO:74), with the Not1 restriction enzyme site underlined.
(§2) Human brain cDNA inserts were prepared and cloned into the expression vector according to manufacturer's instructions.

melanocortin receptor = experiment: Feeding response to ICV injection of SHU9119 after three days of ODN or saline infusion; format: in vivo, Sprague Dawley rats; conditions: mean ± SEM
Description: To further analyse the link between FIT and the melanocortin system, the feeding response of Sprague Dawley rats to an ICV injection of SHU9119, a melanocortin receptor antagonist and known feeding stimulator was investigated. After three days of FIT antisense treatment, jumbled oligonucleotide or saline infusion, responses were compared to rats receiving an ICV injection of saline vehicle rather than SHU9119.

[2] = biological target: T2, FIT-PR (FIT proline-rich region); experiment: Yeast two-hybrid screen of human brain cDNA library, bait FIT-PR; format: binding; conditions: clones listed highest to lowest interacting strength
Description: as §1, with “To investigate the mechanism by which FIT regulates energy balance, neural proteins that interact with FIT were identified. In” for “In”
as §2

Molecule	Number of clones [1]	strength of interaction with FIT [1]	Number of clones [2]	Δ FI (melanocortin receptor; 48 hr food intake post minus pre injection) [g/g BW]	48 hr FI post injection (melanocortin receptor; food intake relative to body weight, after ICV SHU9119 or vehicle injection)	48 hr FI pre injection (melanocortin receptor; food intake relative to body weight, during ICV infusion, before SHU9119 or vehicle injection) [g/g BW]
MAD2: FIT interacting protein isolated from a human brain cDNA library	1	–	–	–	–	–
SHU9119	–	–	–	0.02 ± 0.01	0.16 ± 0.01^a g/g BW	0.14 ± 0.01
β-arrestin 1: FIT interacting protein isolated from a human brain cDNA library	1	slightly lesser strength	–	–	–	–
endophilin 1: FIT interacting protein isolated from a human brain cDNA library (protein, left off: large carriers) MSVAGLKKQFHKATQKVSEKVGGAEGTKLDDDFKEMERKVDVTSRAVMEIMTKTIEYLQPNPASRAKLSMINTMSKIRGQEKGPGYPQAEALLAEAMLKFGRELGDDCNFGPALGEVGEAMRELSEVKDSLDIEVKQNFIDPLQNLHDKDLREIQHHLKKLEGRRLDFDYKKKRQGKIPDEELRQALEKFDESKEIAESSMFNLLEMDIEQVSQLSALVQAQLEYHKQAVQILQQVTVRLEERIRQASSQPRREYQPKPRMSLEFPTGDSTQPNGGLSHTGTPKPSGVQMDQPCCRALYDFEPENEGELGFKEGDIITLTNQIDENWYEGMLHGHSGFFPINYVEILVALPH	14	very strongly	12	–	–	–
endophilin 3: FIT interacting protein isolated from a human brain cDNA library (protein, left off: large carriers) MSVAGLKKQFHKASQLFSEKISGAEGTKLDDEFLDMERKIDVTNKVVAEILSKTTEYLQPNPAYRAKLGMLNTVSKIRGQVKTTGYPQTEGLLGDCMLKYGKELGEDSTFGNALIEVGESMKLMAEVKDSLDINVKQTFIDPLQLLQDKDLKEIGHHLKKLEGRRLDYDYKKKRVGKIPDEEVRQAVEKFEESKELAERSMFNFLENDVEQVSQLAVFIEAALDYHRQSTEILQELQSKLQMRISAASSVPRREYKPRPVKRSSSELNGVSTTSVVKTTGSNIPMDQPCCRGLYDFEPENQGELGFKEGDIITLTNQIDENWYEGMIHGESGFFPINYVEVIVPLPQ	7	very strongly	2	–	–	–
RNA-binding protein EWS: FIT interacting protein isolated from a human brain cDNA library (protein, left off: large carriers) MASTDYSTYSQAAAQQGYSAYTAQPTQGYAQTTQAYGQQSYGTYGQPTDVSYTQAQTTATYGQTAYATSYGQPPTGYTTPTAPQAYSQPVQGYGTGAYDTTTATVTTTQASYAAQSAYGTQPAYPAYGQQPAATAPTRPQDGNKPTETSQPQSSTGGYNQPSLGYGQSNYSYPQVPGSYPMQPVTAPPSYPPTSYSSTQPTSYDQSSYSQQNTYGQPSSYGQQSSYGQQSSYGQQPPTSYPPQTGSYSQAPSQYSQQSSSYGQQSSFRQDHPSSMGVYGQESGGFSGPGENRSMSGPDNRGRGRGGFDRGGMSRGGRGGGRGGMGSAGERGGFNKPGGPMDEGPDLDLGPPVDPDEDSDNSAIYVQGLNDSVTLDDLADFFKQCGVVKMNKRTGQPMIHIYLDKETGKPKGDATVSYEDPPTAKAAVEWFDGKDFQGSKLKVSLARKKPPMNSMRGGLPPREGRGMPPPLRGGPGGPGGPGGPMGRMGGRGGDRGGFPPRGPRGSRGNPSGGGNVQHRAGDWQCPNPGCGNQNFAWRTECNQCKAPKPEGFLPPPFPPPGGDRGRGGPGGMRGGRGGLMDRGGPGGMFRGGRGGDRGGFRGGRGMDRGGFGGGRRGGPGGPPGPLMEQMGGRRGGRGGPGKMDKGEHRQERRDRPY	1	–	–	–	–	–

Now from value to molecule, other results behind:

Number of clones [1]	strength of interaction with FIT [1]	Number of clones [2]	Molecule	Δ FI (melanocortin receptor; 48 hr food intake post minus pre injection) [g/g BW]	48 hr FI post injection (melanocortin receptor; food intake relative to body weight, after ICV SHU9119 or vehicle injection)	48 hr FI pre injection (melanocortin receptor; food intake relative to body weight, during ICV infusion, before SHU9119 or vehicle injection) [g/g BW]
1	slightly lesser strength	–	α-2 subunit of the AP2 complex: FIT interacting protein isolated from a human brain cDNA library (protein, left off: large carriers) MPAVSKGDGMRGLAVFISDIRNCKSKEAEIKRINKELANIRSKFKGDKALDGYSKKKYVCKLLFIFLLGHDIDFGHMEAVNLLSSNRYTEKQIGYLFISVLVNSNSELIRLINNAIKNDLASRNPTFMGLALHCIASVGSREMAEAFAGEIPKVLVAGDTMDSVKQSAALCLLRLYRTSPDLVPMGDWTSRVVHLLNDQHLGVVTAATSLITTLAQKNPEEFKTSVSLAVSRLSRIVTSASTDLQDYTYYFVPAPWLSVKLLRLLQCYPPPDPAVRGRLTECLETILNKAQEPPKSKKVQHSNAKNAVLFEAISLIIHHDSEPNLLVRACNQLGQFLQHRETNLRYLALESMCTLASSEFSHEAVKTHIETVINALKTERDVSVRQRAVDLLYAMCDRSNAPQIVAEMLSYLETADYSIREEIVLKVAILAEKYAVDYTWYVDTILNLIRIAGDYVSEEVWYRVIQIVINRDDVQGYAAKTVFEALQAPACHENLVKVGGYILGEFGNLIAGDPRSSPLIQFHLLHSKFHLCSVPTRALLLSTYIKFVNLFPEVKPTIQDVLRSDSQLRNADVELQQRAVEYLRLSTVASTDILATVLEEMPPFPERESSILAKLKKKKGPSTVTDLEDTKRDRSVDVNGGPEPAPASTSAVSTPSPSADLLGLGAAPPAPAGPPPSSGGSGLLVDVFSDSASVVAPLAPGSEDNFARFVCKNNGVLFENQLLQIGLKSEFRQNLGRMFIFYGNKTSTQFLNFTPTLICSDDLQPNLNLQTKPVDPTVEGGAQVQQVVNIECVSDFTEAPVLNIQFRYGGTFQNVSVQLPITLNKFFQPTEMASQDFFQRWKQLSNPQQEVQNIFKAKHPMDTEVTKAKIIGFGSALLEEVDPNPANFVGAGIIHTKTTQIGCLLRLEPNLQAQMYRLTLRTSKEAVSQRLCELLSAQF	–	–	–
8	slightly lesser strength	–	α-1 subunit of the AP2 complex: FIT interacting protein isolated from a human brain cDNA library (protein, left off: large carriers) MPAVSKGDGMRGLAVFISDIRNCKSKEAEIKRINKELANIRSKFKGDKALDGYSKKKYVCKLLFIFLLGHDIDFGHMEAVNLLSSNKYTEKQIGYLFISVLVNSNSELIRLINNAIKNDLASRNPTFMCLALHCIANVGSREMGEAFAADIPRILVAGDSMDSVKQSAALCLLRLYKASPDLVPMGEWTARVVHLLNDQHMGVVTAAVSLITCLCKKNPDDFKTCVSLAVSRLSRIVSSASTDLQDYTYYFVPAPWLSVKLLRLLQCYPPPEDAAVKGRLVECLETVLNKAQEPPKSKKVQHSNAKNAILFETISLIIHYDSEPNLLVRACNQLGQFLQHRETNLRYLALESMCTLASSEFSHEAVKTHIDTVINALKTERDVSVRQRAADLLYAMCDRSNAKQIVSEMLRYLETADYAIREEIVLKVAILAEKYAVDYSWYVDTILNLIRIAGDYVSEEVWYRVLQIVTNRDDVQGYAAKTVFEALQAPACHENMVKVGGYILGEFGNLIAGDPRSSPPVQFSLLHSKFHLCSVATRALLLSTYIKFINLFPETKATIQGVLRAGSQLRNADVELQQRAVEYLTLSSVASTDVLATVLEEMPPFPERESSILAKLKRKKGPGAGSALDDGRRDPSSNDINGGMEPTPSTVSTPSPSADLLGLRAAPPPAAPPASAGAGNLLVDVFDGPAAQPSLGPTPEEAFLSELEPPAPESPMALLADPAPAADPGPEDIGPPIPEADELLNKFVCKNNGVLFENQLLQIGVKSEFRQNLGRMYLFYGNKTSVQFQNFSPTVVHPGDLQTQLAVQTKRVAAQVDGGAQVQQVLNIECLRDFLTPPLLSVRFRYGGAPQALTLKLPVTINKFFQPTEMAAQDFFQRWKQLSLPQQEAQKIFKANHPMDAEVTKAKLLGFGSALLDNVDPNPENFVGAGIIQTKALQVGCLLRLEPNAQAQMYRLTLRTSKEPVSRHLCELLAQQF	–	–	–
